± gives the standard deviation of the averaged measurements.
Columns and labels:
MCF7 = assay: percentage of EdU-negative (G0-arrested) nuclei per well, 72 h; higher = more G0 arrest; details: reference: sequence is the full UniProt precursor, the tested protein was the secreted form or ectodomain
hTERT-HMEC = assay: as above; details: reference: sequence is the full UniProt precursor, the tested protein was the secreted form or ectodomain
[1] = protein concentration 0.0225 µM
[2] = protein concentration 0.00725 µM
[3] = protein concentration 0.0725 µM
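Further: secreted proteins added to cultured cells, EdU pulse at the end, nuclei found by Hoechst imaging, EdU status from nuclear versus surrounding ring intensity ratio, PBS as neutral control.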

MRTLTILTAVLLVALQAKAEPLQAEDDPLQAKAYEADAQEQRGANDQDFAVSFAEDASSSLRALGSTRAFTCHCRRSCYSTEYSYGTCTVMGINHRFCCL
percentage of EdU-negative (MCF7; [1]): 26.4 ± 0.96% | percentage of EdU-negative (MCF7; protein concentration 0.225 µM): 26.4 ± 0.12% | percentage of EdU-negative (hTERT-HMEC; [1]): 4.63 ± 0.29% | percentage of EdU-negative (hTERT-HMEC; protein concentration 0.225 µM): 5.921 ± 0.038%

MEQWDHFHNQQEDTDSCSESVKFDARSMTALLPPNPKNSPSLQEKLKSFKAALIALYLLVFAVLIPLIGIVAAQLLKWETKNCSVSSTNANDITQSLTGKGNDSEEEMRFQEVFMEHMSNMEKRIQHILDMEANLMDTEHFQNFSMTTDQRFNDILLQLSTLFSSVQGHGNAIDEISKSLISLNTTLLDLQLNIENLNGKIQENTFKQQEEISKLEERVYNVSAEIMAMKEEQVHLEQEIKGEVKVLNNITNDLRLKDWEHSQTLRNITLIQGPPGPPGEKGDRGPTGESGPRGFPGPIGPPGLKGDRGAIGFPGSRGLPGYAGRPGNSGPKGQKGEKGSGNTLTPFTKVRLVGGSGPHEGRVEILHSGQWGTICDDRWEVRVGQVVCRSLGYPGVQAVHKAAHFGQGTGPIWLNEVFCFGRESSIEECKIRQWGTRACSHSEDAGVTCTL
percentage of EdU-negative (MCF7; [1]): 27.3 ± 1.6% | percentage of EdU-negative (MCF7; protein concentration 0.225 µM): 25.4 ± 1.7% | percentage of EdU-negative (hTERT-HMEC; [1]): 5.16 ± 0.032% | percentage of EdU-negative (hTERT-HMEC; protein concentration 0.225 µM): 5.23 ± 1.7%

MRALLLLGFLLVSLESTLSIPPWEAPKEHKYKAEEHTVVLTVTGEPCHFPFQYHRQLYHKCTHKGRPGPQPWCATTPNFDQDQRWGYCLEPKKVKDHCSKHSPCQKGGTCVNMPSGPHCLCPQHLTGNHCQKEKCFEPQLLRFFHKNEIWYRTEQAAVARCQCKGPDAHCQRLASQACRTNPCLHGGRCLEVEGHRLCHCPVGYTGAFCDVDTKASCYDGRGLSYRGLARTTLSGAPCQPWASEATYRNVTAEQARNWGLGGHAFCRNPDNDIRPWCFVLNRDRLSWEYCDLAQCQTPTQAAPPTPVSPRLHVPLMPAQPAPPKPQPTTRTPPQSQTPGALPAKREQPPSLTRNGPLSCGQRLRKSLSSMTRVVGGLVALRGAHPYIAALYWGHSFCAGSLIAPCWVLTAAHCLQDRPAPEDLTVVLGQERRNHSCEPCQTLAVRSYRLHEAFSPVSYQHDLALLRLQEDADGSCALLSPYVQPVCLPSGAARPSETTLCQVAGWGHQFEGAEEYASFLQEAQVPFLSLERCSAPDVHGSSILPGMLCAGFLEGGTDACQGDSGGPLVCEDQAAERRLTLQGIISWGSGCGDRNKPGVYTDVAYYLAWIREHTVS
percentage of EdU-negative (MCF7; protein concentration 0.009 µM): 27.06 ± 0.031% | percentage of EdU-negative (MCF7; protein concentration 0.09 µM): 27.973 ± 0.024% | percentage of EdU-negative (hTERT-HMEC; protein concentration 0.009 µM): 5.23 ± 0.56% | percentage of EdU-negative (hTERT-HMEC; protein concentration 0.09 µM): 49.1 ± 0.6%

MPSWALFMVTSCLLLAPQNLAQVSSQDVSLLASDSEPLKCFSRTFEDLTCFWDEEEAAPSGTYQLLYAYPREKPRACPLSSQSMPHFGTRYVCQFPDQEEVRLFFPLHLWVKNVFLNQTRTQRVLFVDSVGLPAPPSIIKAMGGSQPGELQISWEEPAPEISDFLRYELRYGPRDPKNSTGPTVIQLIATETCCPALQRPHSASALDQSPCAQPTMPWQDGPKQTSPSREASALTAEGGSCLISGLQPGNSYWLQLRSEPDGISLGGSWGSWSLPVTVDLPGDAVALGLQCFTLDLKNVTCQWQQQDHASSQGFFYHSRARCCPRDRYPIWENCEEEEKTNPGLQTPQFSRCHFKSRNDSIIHILVEVTTAPGTVHSYLGSPFWIHQAVRLPTPNLHWREISSGHLELEWQHPSSWAAQETCYQLRYTGEGHQDWKVLEPPLGARGGTLELRPRSRYRLQLRARLNGPTYQGPWSSWSDPTRVETATETAWISLVTALHLVLGLSAVLGLLLLRWQFPAHYRRLRHALWPSLPDLHRVLGQYLRDTAALSPPKATVSDTCEEVEPSLLEILPKSSERTPLPLCSSQAQMDYRRLQPSCLGTMPLSVCPPMAESGSCCTTHIANHSYLPLSYWQQP
percentage of EdU-negative (MCF7; [2]): 25.4 ± 0.65% | percentage of EdU-negative (MCF7; [3]): 26.02 ± 0.25% | percentage of EdU-negative (hTERT-HMEC; [2]): 4.77 ± 0.37% | percentage of EdU-negative (hTERT-HMEC; [3]): 6.04 ± 0.21%

MTGLCGYSAPDMRGLRLIMIPVELLLCYLLLHPVDATSYGKQTNVLMHFPLSLESQTPSSDPLSCQFLHPKSLPGFSHMAPLPKFLVSLALRNALEEAGCQADVWALQLQLYRQGGVNATQVLIQHLRGLQKGRSTERNVSVEALASALQLLAREQQSTGRVGRSLPTEDCENEKEQAVHNVVQLLPGVGTFYNLGTALYYATQNCLGKARERGRDGAIDLGYDLLMTMAGMSGGPMGLAISAALKPALRSGVQQLIQYYQDQKDANISQPETTKEGLRAISDVSDLEETTTLASFISEVVSSAPYWGWAIIKSYDLDPGAGSLEI
percentage of EdU-negative (MCF7; [1]): 26.5 ± 0.29% | percentage of EdU-negative (MCF7; protein concentration 0.225 µM): 30.7 ± 0.48% | percentage of EdU-negative (hTERT-HMEC; [1]): 5.166 ± 0.011% | percentage of EdU-negative (hTERT-HMEC; protein concentration 0.225 µM): 19.7 ± 0.93%

From the supplement of paper PMC11316812
